{"source": "paper PMC10674744", "origin": "cited, not measured here", "key": {"[1]": {"target": "SNUPN NES NES (Homo sapiens) (UniProt O95149)"}, "[2]": {"target": "STRAD NES NES (Homo sapiens) (UniProt Q7RTN6)"}, "[3]": {"target": "PKI NES NES (Homo sapiens) (UniProt P61925)"}, "[4]": {"target": "Rev NES NES (Human immunodeficiency virus 1) (UniProt P04325)"}}}
{"substance": "CRM1 (from UniProt O14980)", "values": [{"measurement": "Kd", "setting": "[1]", "result": 12.5, "unit": "µM"}, {"measurement": "Kd", "setting": "[2]", "result": 10.3, "unit": "µM"}, {"measurement": "Kd", "setting": "[3]", "result": 0.034, "unit": "µM"}, {"measurement": "Kd", "setting": "[4]", "result": 1.18, "unit": "µM"}]}
